The values that follow come from publication PMC10130975.

In this experiment the target is human glycerol kinase (His-GK) (human) (UniProt P32189). As to the kind of experiment: native gel or EMSA; native-PAGE without the denaturants of SDS-PAGE; purified His-GK ran at ~100 kDa, against ~55 kDa by 10% SDS-PAGE.

In the case of “human glycerol kinase (His-GK) (from UniProt P32189 1-559) (enzyme)”, the stoichiometry N worked out at 2.
